Laboratory results: patent US20240132563A1 (BRIGHT PEAK THERAPEUTICS, published 2024)
Positions of bridges follow the written chain, without caps; N, C: chain ends. Non-standard residues stand in square brackets, D forms with d. Chains are numbered I, II in the order given. Ygp = tyrosine with amino-capped PEG8; Yn3 = tyrosine with azide-capped PEG9; hSer = N[C@@H](CCO)C(=O)O; Nle = CCCC[C@H](N)C(=O)O

T1: IL-18R on HEK-Blue IL18R reporter cells (UniProt Q13478 19-541; O95256 20-599, limits assumed)
T1 sequence (looked up) 1: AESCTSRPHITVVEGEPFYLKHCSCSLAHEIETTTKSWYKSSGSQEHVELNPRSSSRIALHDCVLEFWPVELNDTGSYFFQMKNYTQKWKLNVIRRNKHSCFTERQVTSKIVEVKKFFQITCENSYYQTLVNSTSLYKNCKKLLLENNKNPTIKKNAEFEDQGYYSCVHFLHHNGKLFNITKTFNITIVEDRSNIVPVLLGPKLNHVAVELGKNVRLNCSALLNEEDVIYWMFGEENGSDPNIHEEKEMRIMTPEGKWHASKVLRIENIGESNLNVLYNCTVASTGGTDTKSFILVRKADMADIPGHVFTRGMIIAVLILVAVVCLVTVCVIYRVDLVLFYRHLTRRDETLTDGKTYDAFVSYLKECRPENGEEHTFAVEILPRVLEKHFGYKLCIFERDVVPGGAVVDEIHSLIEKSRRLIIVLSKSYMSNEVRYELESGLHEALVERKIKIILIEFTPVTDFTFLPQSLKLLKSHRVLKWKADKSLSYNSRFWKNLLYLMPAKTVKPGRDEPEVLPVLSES
T1 sequence (looked up) 2: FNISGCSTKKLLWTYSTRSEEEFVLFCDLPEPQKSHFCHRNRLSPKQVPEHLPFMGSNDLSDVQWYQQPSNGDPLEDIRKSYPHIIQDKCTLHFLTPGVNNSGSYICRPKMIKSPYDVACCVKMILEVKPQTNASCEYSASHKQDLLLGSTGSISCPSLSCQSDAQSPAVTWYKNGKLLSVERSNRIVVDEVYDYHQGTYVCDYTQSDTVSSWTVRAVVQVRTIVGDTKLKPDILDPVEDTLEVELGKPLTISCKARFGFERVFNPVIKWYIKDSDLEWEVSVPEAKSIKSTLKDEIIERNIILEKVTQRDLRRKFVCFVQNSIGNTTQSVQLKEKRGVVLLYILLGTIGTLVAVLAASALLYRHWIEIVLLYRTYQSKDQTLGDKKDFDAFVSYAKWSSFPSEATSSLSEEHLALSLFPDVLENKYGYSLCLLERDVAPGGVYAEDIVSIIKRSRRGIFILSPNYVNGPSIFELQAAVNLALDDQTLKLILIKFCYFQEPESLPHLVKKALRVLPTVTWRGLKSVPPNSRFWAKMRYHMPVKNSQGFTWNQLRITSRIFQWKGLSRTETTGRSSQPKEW

T2: IL-2Rβγ on HEK-Blue IL2Rβγ reporter cells (UniProt P14784 27-551; P31785 23-369)
T2 sequence (looked up) 1: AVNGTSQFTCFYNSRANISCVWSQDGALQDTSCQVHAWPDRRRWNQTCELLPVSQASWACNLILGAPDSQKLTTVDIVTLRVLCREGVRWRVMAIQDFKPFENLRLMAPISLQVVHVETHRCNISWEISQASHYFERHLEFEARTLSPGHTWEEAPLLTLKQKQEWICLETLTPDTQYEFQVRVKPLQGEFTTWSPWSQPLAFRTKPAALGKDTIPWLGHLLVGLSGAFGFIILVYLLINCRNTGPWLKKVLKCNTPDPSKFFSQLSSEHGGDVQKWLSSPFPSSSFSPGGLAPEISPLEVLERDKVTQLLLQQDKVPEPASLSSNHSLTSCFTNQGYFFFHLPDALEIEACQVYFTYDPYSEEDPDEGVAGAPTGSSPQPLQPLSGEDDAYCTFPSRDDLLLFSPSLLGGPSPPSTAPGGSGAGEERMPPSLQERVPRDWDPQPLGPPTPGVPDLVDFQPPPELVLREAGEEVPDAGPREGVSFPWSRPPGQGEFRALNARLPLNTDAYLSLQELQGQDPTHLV
T2 sequence (looked up) 2: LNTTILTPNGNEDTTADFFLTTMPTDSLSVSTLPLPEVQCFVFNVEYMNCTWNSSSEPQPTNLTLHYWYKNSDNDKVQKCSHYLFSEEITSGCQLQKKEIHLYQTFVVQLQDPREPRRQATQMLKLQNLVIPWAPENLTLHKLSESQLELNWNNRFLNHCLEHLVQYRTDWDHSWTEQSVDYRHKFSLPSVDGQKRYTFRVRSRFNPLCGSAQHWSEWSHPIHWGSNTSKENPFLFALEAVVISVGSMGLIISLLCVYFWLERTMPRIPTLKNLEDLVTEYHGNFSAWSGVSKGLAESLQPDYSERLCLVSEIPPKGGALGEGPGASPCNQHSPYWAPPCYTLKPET

T3: CD218a (IL-18 receptor alpha subunit), avi-tagged (UniProt Q13478 19-329, limits assumed)
T3 construct: BLI ligand printed as 'CD218a (avi)'; also called CD218a (avi); IL-18Rα
T3 sequence (looked up): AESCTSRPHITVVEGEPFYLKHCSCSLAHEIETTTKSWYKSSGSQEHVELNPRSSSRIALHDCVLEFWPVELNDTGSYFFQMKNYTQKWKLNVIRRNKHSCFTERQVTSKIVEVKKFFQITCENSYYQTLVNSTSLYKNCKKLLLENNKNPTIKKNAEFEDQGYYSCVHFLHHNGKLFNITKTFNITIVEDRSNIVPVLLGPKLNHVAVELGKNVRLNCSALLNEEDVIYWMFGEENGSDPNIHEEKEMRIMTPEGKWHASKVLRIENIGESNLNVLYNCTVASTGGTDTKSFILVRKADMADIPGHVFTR

T4: IL-2Rβ (CD122), avi-tagged (UniProt P14784 27-239, limits assumed)
T4 construct: BLI ligand printed as 'CD122 (avi)'; also called IL-2 receptor beta subunit
T4 sequence (looked up): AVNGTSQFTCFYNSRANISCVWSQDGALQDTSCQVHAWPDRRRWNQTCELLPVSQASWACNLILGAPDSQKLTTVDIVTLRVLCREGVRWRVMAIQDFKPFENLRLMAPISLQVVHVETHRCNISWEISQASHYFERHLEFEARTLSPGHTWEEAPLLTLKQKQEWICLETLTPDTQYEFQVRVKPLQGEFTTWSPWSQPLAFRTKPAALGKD

B1: Bifunctional cytokine Composition 4 (IL-18 SEQ ID NO: 30, linker 004, IL-2 SEQ ID NO: 300) (other)
chain 1: YFGKLKSKLSIIRNLNDQVLFIDQGNRPLFEDMTDSDARDNAPRTIFIISMYADSQPRGMAVAISVKCEKISTLSAENKIISFKEMNPPDNIKDTKSDIIFFQRSVPGHDNKMQFESSSYEGYFLAAEKERDLFKLILKKEDELGDRSIMFTVQNED
chain 2: APTSSSTKKTQLQLEHLLLDLQ[Nle]ILNGINNYKNPKLTR[Nle]L[hSer][Yn3]KF[Ygp][Nle]PKKATELKHLQCLEEELKPLEEVL[hSer]LAQSKNFHLRPRDLISNINVIVLELKGSETTF[hSer]CEYADETATIVEFLNRWITFSQSIISTLT
modifications: linker I:68-II:42 via linker 004 (SulfoDBCO-Maleimide) (inferred); ends not checked
notes: Two cytokines joined by a chemical (non-peptide) linker
B2: IL-18 polypeptide of SEQ ID NO: 30 (E6K, V11I, C38A, K53A, T63A, C76A, C127A) (ligand)
chain: YFGKLKSKLSIIRNLNDQVLFIDQGNRPLFEDMTDSDARDNAPRTIFIISMYADSQPRGMAVAISVKCEKISTLSAENKIISFKEMNPPDNIKDTKSDIIFFQRSVPGHDNKMQFESSSYEGYFLAAEKERDLFKLILKKEDELGDRSIMFTVQNED
notes: also called C086
B3: IL-2 polypeptide of SEQ ID NO: 300 (ligand)
chain: APTSSSTKKTQLQLEHLLLDLQ[Nle]ILNGINNYKNPKLTR[Nle]L[hSer][Yn3]KF[Ygp][Nle]PKKATELKHLQCLEEELKPLEEVL[hSer]LAQSKNFHLRPRDLISNINVIVLELKGSETTF[hSer]CEYADETATIVEFLNRWITFSQSIISTLT
modifications: ends and bridges not checked
notes: Synthetic modified IL-2
B4: Bifunctional cytokine Composition 3 (IL-18 SEQ ID NO: 30, linker 006, IL-2 SEQ ID NO: 300) (other)
chain 1: YFGKLKSKLSIIRNLNDQVLFIDQGNRPLFEDMTDSDARDNAPRTIFIISMYADSQPRGMAVAISVKCEKISTLSAENKIISFKEMNPPDNIKDTKSDIIFFQRSVPGHDNKMQFESSSYEGYFLAAEKERDLFKLILKKEDELGDRSIMFTVQNED
chain 2: APTSSSTKKTQLQLEHLLLDLQ[Nle]ILNGINNYKNPKLTR[Nle]L[hSer][Yn3]KF[Ygp][Nle]PKKATELKHLQCLEEELKPLEEVL[hSer]LAQSKNFHLRPRDLISNINVIVLELKGSETTF[hSer]CEYADETATIVEFLNRWITFSQSIISTLT
modifications: linker I:68-II:42 via linker 006 (SulfoDBCO-PEG24-Maleimide) (inferred); ends not checked
notes: as for B1

How the values were obtained:
[1] = biological target: T1, IL-18R on HEK-Blue IL18R reporter cells; assay: cell-based or functional assay
[2] = biological target: T2, IL-2Rβγ on HEK-Blue IL2Rβγ reporter …; assay: cell-based or functional assay
[3] = biological target: T3, CD218a (IL-18 receptor alpha subunit), …; assay: BLI; ligand CD218a (avi)
[4] = biological target: T4, IL-2Rβ (CD122), avi-tagged; assay: BLI; ligand CD122 (avi)

Row | Binder | EC50, HEK-Blue IL18R reporter assay [1] [pM] | EC50, HEK-Blue IL2Rβγ reporter assay [2] [nM] | Kd [3] [nM] | koff [3] [s⁻¹] | kon [3] [M⁻¹ s⁻¹] | Kd [4] [nM] | koff [4] [s⁻¹] | kon [4] [M⁻¹ s⁻¹]
1 | B1 | 1.48 | 0.05 | 66.4 | 0.0708 | 1.07e+06 | 148 | 0.0863 | 585000
2 | B2 | 0.067 |  | 26.1 | 0.0567 | 2.17e+06 |  |  | 
3 | B3 |  | 0.004 |  |  |  | 206 | 0.102 | 493000
4 | B4 | 0.1 | 0.007 | 25 | 0.0405 | 1.62e+06 | 151 | 0.0842 | 559000
